Paper PMC5704366

Target: mononucleosome assembled with an octamer lacking the H4 tail (human) (UniProt P0C0S8)
Test: pull-down

HIV-1 integrase, wild type (from UniProt P12497 1148-1435) (enzyme)
percent less efficient binding than to native MN: 50 to 60%
